From patent US20220396632A1 (VERSEAU THERAPEUTICS, published 2022)
Changes are numbered by the printed parent chain.

T1: Biotin PSGL-1(42-62) peptide, unmodified (human, C-terminal Lys-biotin)
T1 construct: Residues 42-62 followed by GGGK-biotin; also called WT; wild-type
T1 peptide: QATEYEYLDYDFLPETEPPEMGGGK

T2: Biotin Y46,48,51(SO3) PSGL-1(42-62) peptide (human, sulfotyrosine at Y46, Y48 and Y51; C-terminal Lys-biotin)
T2 construct: also called fully sulfated N-terminal PSGL-1 peptide
T2 peptide: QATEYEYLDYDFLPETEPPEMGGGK

T3: Biotin PSGL-1(42-62) F53A peptide (C-terminal Lys-biotin)
T3 peptide: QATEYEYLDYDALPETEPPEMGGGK

T4: Recombinant human PSGL-1(ECD)-hFc1 (R&D Systems, Cat. 3345-PS) (human, UniProt Q14242 42-305)
T4 construct: Bought; Gln42-Val295 counted on AAC50061; also called PSGL-1-Fc; PSGL-1-hFc1 chimera; not shown: human IgG1 Fc, Pro100-Lys330
T4 sequence: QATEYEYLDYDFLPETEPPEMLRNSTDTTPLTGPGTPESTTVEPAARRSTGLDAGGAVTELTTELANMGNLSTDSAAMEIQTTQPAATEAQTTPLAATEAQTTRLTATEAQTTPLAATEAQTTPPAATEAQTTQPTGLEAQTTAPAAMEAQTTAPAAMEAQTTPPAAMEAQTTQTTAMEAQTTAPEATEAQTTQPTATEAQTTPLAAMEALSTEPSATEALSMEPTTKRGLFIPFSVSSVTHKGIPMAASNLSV

B1: 03D07 (antibody, IgG4, V domains shown)
VH: EVKLLESGGGLVQPGGSLRLSCAASGFTFSSYALSWVRQAPGKGLEWVSAISGSGGNTYYADSVKGRFTISRDNSKNTLYLQMNSLRAEDTAVYYCAKVVGATNYWGQGTLVTVSS
VL: DIVMTQTPLSLPVTLGQPASISCRSSQSLVYSDGHTYLSWFHQRPGQSPRRLIYKVSIRDSGVPDRFSGSGSGTDFTLKISRVEAEDVGVYYCMQRLQIPLTFGGGTKVEIK
B2: 20I15 (antibody, V domains shown)
VH: EVKLVESGGGLVQPGGSLSLSCAASGFTFTDYYMSWVRQPPGKALEWLGFIRNKANGYTTEYSASVKGRFTISRDNSQSILYLQMNALRAEDSATYYCARTYLRRGYFDVWGTGTTVTVSS
VL: DIVLTQSPASLAVSLGQRATISCRASKSVSTSGYSYMHWFQQKPGQPPKLLIYLASNLESGVPARFSGSGSGTDFTLNIHPVEEEDAATYYCQHSRELPLTFGAGTKLELK
notes: From mouse immunisation; only variable domains given; also called 20115
B3: 19I01 (antibody, V domains shown)
VH: EVQLVESGGGLVKPGGSRKLSCAASGFTFSDYGMHWVRQAPEKGLEWVAYISSGSSTIYYADTVKGRFTISRDNAKNTLFLQMTSLRSEDTAMYYCARGVDGYWGQGTTLTVSS
VL: DVVMTQTPLSLPVSLGDQASISCRSSQSLVHSNGNTYLHWYLQKPGQSPKFLIYKVSNRFSGVPDRFSGSGSGTDFTLKISRVEAEDLGVYFCSQTTHVPLTFGAGTKLELK
notes: From mouse immunisation; only variable domains given; also called 19101
B4: 16L15 (antibody, V domains shown)
VH: DVKLVESGGGLVKLGGSLKLSCAASGFTFSSYYMSWVRQTPEKRLEWVATISNGGGSTYYPDSVKDRFTISRDNAKNTLYLQMSSLNSEDTAVYYCAKPLYYSNPWFAYWGQGTLVTVSA
VL: DVLLTQTPLSLPVSLGDQASISCRSSQSIVHSNGNTYLEWYLQKPGQSPKLLIYKVSNRFSGVPDRFSGSGSGTDFTLKISRVEAEDLGVYYCFQGSHVPRTFGGGTKLEIK
notes: From mouse immunisation; only variable domains given
B5: 5E12 (antibody, V domains shown)
VH: EIQLQQSGAELVRPGASVKLSCTASGFNIKDDYIHWVKQRPEQGLEWIGRIDPANGNTKSAPKFQDKATITADTSSNTAYLHLSSLTSEDTAVYYCSIRFAYWGQGTLVTVSA
VL: DVVMTQTPLSLSVSLGDQASISCRSSQSLVYRNGDTYLHWFLQKPGQSPKLLIYKVSNRFSGVPDRFSGSGSGTDFTLKISRVEAEDLGIYFCSQNTHVPYTFGGGTKLEIK
notes: Mouse hybridoma mAb; only variable domains given
B6: 18F02 (antibody, V domains shown)
VH: QVQLQQPGAELVKPGASVKLSCKASGYTFTSYWMHWVKQRPGQGLEWIGMIHPNSGRTNYNEKFKSKATLTVDKSSSTAYMQLSSLTSEDSAVYYCARSDYWGQGTTLTVSS
VL: DIVMTQAAFSNPVTLGTSASISCRSSKSLLHSDGITYLYWFLQRPGQSPQLLIYRMSNLASGVPDRFSGSGSGTDFTLRISRVEAEDVGVYYCAQMLEFPRTFGGGTKLEIK
notes: as for B4
B7: 16E17 (antibody, V domains shown)
VH: QIQLVQSGPELKKPGETVKISCKASGYAFTTYGMSWVKQAPGKGLKWMGWINTYSGVPKYADDFKGRFAFSLETSASTAYLHINNLKNEDTATYFCGRHYYGSSYFDYWGQGTTLTVSS
VL: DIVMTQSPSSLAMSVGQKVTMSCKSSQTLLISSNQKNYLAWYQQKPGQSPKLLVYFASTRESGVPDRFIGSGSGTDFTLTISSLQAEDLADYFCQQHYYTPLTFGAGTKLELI
notes: as for B4
B8: 19L04 (antibody, IgG4, V domains shown)
VH: B7 VH with A28T, K59T, H82Q, N88I, G97A, S104H
VL: DIMMTQSPSSLAMSVGQKVTLRCKSSQSLLNSSNQKNYLAWYQQKPGQSPKLLVYFASTRESGVPVRFIGSGSGTDFTLTISSMQAEDLADYFCQQHYFSPLTFGAGTKLELK
notes: as for B4
B9: 19N05 (antibody, V domains shown)
VH: B7 VH with A28T, K59T, Y60F, H82Q, Y94F, G97A, H99N, S103N, S104H
VL: DVQITQSPSYLAASPGETISINCRASNNINKYLAWYQEKPGKTNKLLIYSGSTLQSGIPSRFSGSGSGTDFTLTISSLEPEDFAMYHCQQHNYYPLTFGAGTKLELK
notes: as for B4
B10: 18K07 (antibody, V domains shown)
VH: QIQLVQSGPELKKPGETVKISCEASGYTFTTYGMNWVKQAPGKGLKWMGWINTYSGVPTYADDFQGRFAFSVETSATTAYLQINNLKNEDAATYFCARSDDTYYGFAYWGQGTLVTVSA
VL: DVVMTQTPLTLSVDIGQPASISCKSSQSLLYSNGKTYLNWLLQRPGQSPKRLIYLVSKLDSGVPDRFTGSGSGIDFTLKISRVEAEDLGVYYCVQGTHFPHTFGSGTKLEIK
notes: as for B4
B11: 10F01 (antibody, IgG4, V domains shown)
VH: EVQLVQSGGGLVQPGGSLRLSCAASGFTFSSYAMSWVRQAPGKGLEWVSALRGGDGGTYHADSVKGRFTISGDSSKNTLYLQMNSLRAEDTAVYYCARRMVGAAYAFDIWGQGTMVTVSS
VL: LPVLTQPHSVSESPGKTVTISCTRSSGSIADNFVQWYRQRPGSAPTTVIYEGDQRPSGVPGRFSGSIDSSSNSASLTISGLQTDDEADYYCQSFDSYNRRTHVVFGGGTKLTVL

Assays:
[1] = molecular target: T1, Biotin PSGL-1(42-62) peptide, unmodified; assay: ELISA, plate-bound target
Protocol: (§1) Two ELISA methods were performed. One procedure detected mAb binding to its plate-immobilized target and the other measured the immobilized antibody's ability to capture biotinylated PSGL-1₄₂₋₆₂. […] The plate was incubated for 45 min at 37° C. Plates were washed 3 times with wash buffer (PBS containing 0.05% tween 20, pH 7.4) and a single concentration (2 to 500 nM) or serially diluted (0.002-100 nM) anti-PSGL-1 mAb was added (25 ul/well) in assay buffer into appropriate wells. The plate was incubated for 45 min at 37° C., washed 3 times, and an appropriate HRP-conjugated secondary antibody added (25 ul/well) (HRP goat anti-mouse or anti-human IgG). After 45 min incubation at 37° C., the plate was washed, and antibody bound to plate-immobilized target was determined at A450 nm using HRP substrate (3,3′,5,5′-etramethylbenzidine (TMB)). For each antibody, duplicate values were averaged and assay background was subtracted. Except for the following, ELISAs involving plate-immobilized mAb capturing of biotinylated PSGL-1₄₂₋₆₂ peptides was performed in the same manner as described above: 3 ug/mL/25 ul per well of mAb was coated directly onto microtiter plate wells; biotinylated unmodified or sulfotyrosine PSGL-1₄₂₋₆₂ was serially diluted (3 nM-3 uM) into appropriate wells, and antibody-bound peptide was detected using HRP-streptavidin (Jackson Immunoresearch, Cat. #016-030-084).

[2] = molecular target: T2, Biotin Y46,48,51(SO3) PSGL-1(42-62) …; assay: ELISA, plate-bound target
Protocol: as §1

[3] = molecular target: T5, Human complement C4 protein (Millipore Sigma, Cat. 204886) (human, UniProt P0C0L4 20-675; P0C0L4 680-1446; P0C0L4 1454-1744, limits assumed, natural sulfotyrosines); assay: ELISA, 50 nM mAb on plate-bound protein
T5 construct: mature
Protocol: Recombinant PSGL-1-hFc1 chimera protein consisting of PSGL-1's extracellular domain (ECD) served as a positive control. […] Primary antibody was added (25 ul per well) in duplicate at 50 nM in assay buffer (blocking buffer containing 0.05% Tween®20) into test and control (just blocked) wells and the plate incubated for 45 min at 37° C.

[4] = molecular target: T3, Biotin PSGL-1(42-62) F53A peptide; assay: ELISA, streptavidin-bound Ala peptide
[5] = molecular target: T4, Recombinant human PSGL-1(ECD)-hFc1 (R&D …); assay: Octet tandem; competitor 19L04
Protocol: Antibody binning was performed by ForteBio Octet® using a tandem assay format, with anti-human IgG biosensor-immobilized PSGL-1(ECD)-hFc1 protein, binding of competitor mAb followed by analyte antibody. As competition controls, the same antibody was competed against itself, and mAb competition was performed bidirectionally.
Antibody binning by tandem octet was performed by immobilizing 10 ug/mL PSGL-1(ECD)-hFc1 (R&D Systems, Cat. #3345-PS) in PBS, pH 7.4, onto anti-human IgG capture biosensors (ForteBio, Cat. #18-5060), binding of 100 nM competitor antibody for 300 sec., followed by binding of 100 nM of analyte mAb for 300 s in kinetic buffer (0.1% BSA in PBS containing 0.02% tween 20 and 0.05% sodium azide, pH 7.4). Synagis (Johnson et al. (1997) J. Infect. Dis. 176:1215-1224) served as a negative control mAb for competition. An Fc quench step (0.25 mg/mL human IgG Fcl; BioXcell, Cat. #BE0096, in kinetic buffer) was included when human mAbs were tested to prevent high background from the antibodies binding to the anti-human IgG biosensor. Biosensor regeneration buffer consisted of 10 mM glycine, pH 2.0.

[6] = molecular target: PSGL-1(ECD)-hFc1 M119A protein (Sino Biological) (human); assay: ELISA; against WT PSGL-1(ECD)-hFc1
Protocol: (§2) A typical ELISA experiment involved binding of a single concentration or serially diluted mAb in assay buffer (3% BSA in PBS containing 0.05% Tween®20, pH 7.4) onto BSA blocked high binding microtiter plate half-wells (Corning Cat. #3690), which contained PSGL-1 protein or streptavidin-immobilized biotin peptide. After incubation for 45 min. at 37° C., the plate was washed 3 times with wash buffer (PBS containing 0.05% Tween®20, pH 7.4), and an appropriate HRP-conjugated secondary antibody added (25 ul/well) (HRP goat anti-mouse or anti-human IgG). After 45 min. incubation at 37° C., the plate was washed and antibody bound to plate-immobilized target was determined at A450 nm using HRP substrate (3,3′5,5′-tetramethylbenzidine (TMB)). For each antibody, duplicate values were averaged and assay background subtracted.

[7] = molecular target: PSGL-1(ECD)-hFc1 I121A protein (Sino Biological) (human); assay: ELISA; against WT PSGL-1(ECD)-hFc1
Protocol: as §2

[8] = molecular target: PSGL-1(ECD)-hFc1 S116A protein (Sino Biological) (human); assay: ELISA; against WT PSGL-1(ECD)-hFc1
Protocol: as §2

[9] = molecular target: PSGL-1(ECD)-hFc1 M119A protein (Sino Biological) (human); assay: ELISA, plate-bound peptide or protein
Protocol: as §2

[10] = molecular target: PSGL-1(ECD)-hFc1 I121A protein (Sino Biological) (human); assay: ELISA, plate-bound peptide or protein
Protocol: as §2

[11] = molecular target: PSGL-1(ECD)-hFc1 S116A protein (Sino Biological) (human); assay: ELISA, plate-bound peptide or protein
Protocol: as §2

T5 sequence (P0C0L4 20-675 limits assumed, form in doubt, chain 1 of 3): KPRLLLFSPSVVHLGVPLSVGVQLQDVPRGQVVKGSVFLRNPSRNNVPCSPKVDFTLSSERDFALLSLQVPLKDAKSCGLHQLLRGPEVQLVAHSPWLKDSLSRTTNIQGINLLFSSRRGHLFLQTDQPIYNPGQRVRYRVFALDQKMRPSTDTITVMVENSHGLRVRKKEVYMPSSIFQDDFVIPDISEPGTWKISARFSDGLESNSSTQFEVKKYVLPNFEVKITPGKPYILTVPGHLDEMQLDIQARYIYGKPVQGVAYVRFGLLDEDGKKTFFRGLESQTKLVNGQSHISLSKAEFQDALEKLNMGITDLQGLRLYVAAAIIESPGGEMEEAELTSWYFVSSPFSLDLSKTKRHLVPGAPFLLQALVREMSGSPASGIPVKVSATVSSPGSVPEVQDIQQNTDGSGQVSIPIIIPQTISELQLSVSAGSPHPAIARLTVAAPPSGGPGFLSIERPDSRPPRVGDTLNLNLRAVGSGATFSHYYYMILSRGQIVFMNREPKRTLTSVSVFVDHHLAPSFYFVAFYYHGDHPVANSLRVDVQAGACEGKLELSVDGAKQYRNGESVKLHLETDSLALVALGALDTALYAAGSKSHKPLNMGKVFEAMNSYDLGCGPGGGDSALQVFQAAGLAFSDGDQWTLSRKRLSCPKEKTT
T5 sequence (P0C0L4 680-1446 limits assumed, form in doubt, chain 2 of 3): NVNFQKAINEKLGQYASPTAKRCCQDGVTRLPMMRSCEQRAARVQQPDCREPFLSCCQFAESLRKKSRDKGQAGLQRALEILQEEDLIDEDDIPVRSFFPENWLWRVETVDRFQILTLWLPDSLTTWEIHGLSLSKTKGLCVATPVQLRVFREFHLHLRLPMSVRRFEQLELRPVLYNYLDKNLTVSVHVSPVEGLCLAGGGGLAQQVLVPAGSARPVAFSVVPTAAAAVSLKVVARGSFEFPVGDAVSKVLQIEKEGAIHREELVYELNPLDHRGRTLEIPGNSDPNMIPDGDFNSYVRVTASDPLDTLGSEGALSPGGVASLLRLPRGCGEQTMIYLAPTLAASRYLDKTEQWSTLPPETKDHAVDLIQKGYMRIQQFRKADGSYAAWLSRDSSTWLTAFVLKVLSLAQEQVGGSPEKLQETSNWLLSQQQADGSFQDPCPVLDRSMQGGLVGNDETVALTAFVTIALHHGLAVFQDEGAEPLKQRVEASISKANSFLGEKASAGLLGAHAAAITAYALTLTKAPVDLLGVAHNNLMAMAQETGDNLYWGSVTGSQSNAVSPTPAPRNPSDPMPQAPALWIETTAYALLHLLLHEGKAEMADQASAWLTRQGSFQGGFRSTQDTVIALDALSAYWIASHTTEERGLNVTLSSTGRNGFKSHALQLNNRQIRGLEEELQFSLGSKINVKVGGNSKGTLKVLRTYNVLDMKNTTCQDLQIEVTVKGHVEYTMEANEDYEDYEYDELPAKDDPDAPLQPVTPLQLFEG
T5 sequence (P0C0L4 1454-1744 limits assumed, form in doubt, chain 3 of 3): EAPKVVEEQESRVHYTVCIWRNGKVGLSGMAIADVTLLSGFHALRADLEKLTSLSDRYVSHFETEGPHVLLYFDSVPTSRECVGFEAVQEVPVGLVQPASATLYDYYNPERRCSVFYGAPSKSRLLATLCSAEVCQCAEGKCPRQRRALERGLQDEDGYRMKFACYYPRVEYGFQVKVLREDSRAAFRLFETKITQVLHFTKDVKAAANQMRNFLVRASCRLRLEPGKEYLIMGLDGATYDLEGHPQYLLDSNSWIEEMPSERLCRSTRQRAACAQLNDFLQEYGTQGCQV

Row | Binder | % of binding to PSGL-1(ECD)-hFc1 [3] [%] | % binding of analyte mAb [5] [%] | EC50/EC50WTprot [6] [fold] | EC50/EC50WTprot [7] [fold] | EC50/EC50WTprot [8] [fold] | EC50 [9] [nM] | EC50 [10] [nM] | EC50 [11] [nM] | also measured
1 | B1 |  |  |  |  |  |  |  |  | EC50 [1]: > 20 nM; EC50 [2]: 0.13 nM
2 | B2 |  |  |  |  |  |  |  |  | EC50 [1]: ~30 nM; EC50 [2]: 0.62 nM
3 | B3 | ≤ 10 |  |  |  |  |  |  |  | EC50 [4]: 2.95 nM
4 | B4 | ≤ 10 |  |  |  |  |  |  |  | 
5 | B5 | ≤ 10 |  |  |  |  |  |  |  | 
6 | B6 | ≤ 10 |  |  |  |  |  |  |  | EC50 [4]: 7.1 nM
7 | B7 |  | 0 | 1.58 | 2.8 | 1.45 | 0.87 | 1.54 | 0.8 | 
8 | B8 |  | 35.9 | 1.26 | 1.42 | 1.44 | 0.86 | 0.97 | 0.98 | 
9 | B9 |  | 39.4 | 1.34 | 1.39 | 1.43 | 0.51 | 0.53 | 0.55 | 
10 | B10 |  | 0 | 0.81 | 0.89 | 1.02 | 0.46 | 0.51 | 0.58 | 
11 | B11 | ≤ 10 |  |  |  |  |  |  |  | EC50 [1]: > 500 nM; EC50 [2]: 0.13 nM
